Reference: patent US20200369765A1 (INNATE PHARMA, published 2020)

T1: Human Siglec-9 Ig-like C2-type domain 1 (human)
T1 construct: expressed on HEK293T cells
T1 chain: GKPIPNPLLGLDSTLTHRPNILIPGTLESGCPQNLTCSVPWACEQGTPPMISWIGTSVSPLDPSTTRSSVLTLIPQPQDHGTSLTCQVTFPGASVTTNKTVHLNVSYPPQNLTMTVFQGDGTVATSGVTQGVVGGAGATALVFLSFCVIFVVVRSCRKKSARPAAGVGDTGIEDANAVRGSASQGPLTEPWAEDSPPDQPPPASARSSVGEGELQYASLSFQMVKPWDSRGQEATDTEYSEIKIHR


Key:
[1] = molecular target: T2, Siglec-9 Fc protein (human); assay: ELISA, blocking: Siglec-9 Fc captured on protein A, mAb dilution series, then biotinylated polymer Sia1 (Neu5Aca2-3Galb1-4GlcNAcb-PAA-biotin), streptavidin-peroxidase (top panel)
T2 construct: Produced in CHO cells; also called human Siglec-9 Fc
T2 sequence (chain, as listed by the source limits assumed): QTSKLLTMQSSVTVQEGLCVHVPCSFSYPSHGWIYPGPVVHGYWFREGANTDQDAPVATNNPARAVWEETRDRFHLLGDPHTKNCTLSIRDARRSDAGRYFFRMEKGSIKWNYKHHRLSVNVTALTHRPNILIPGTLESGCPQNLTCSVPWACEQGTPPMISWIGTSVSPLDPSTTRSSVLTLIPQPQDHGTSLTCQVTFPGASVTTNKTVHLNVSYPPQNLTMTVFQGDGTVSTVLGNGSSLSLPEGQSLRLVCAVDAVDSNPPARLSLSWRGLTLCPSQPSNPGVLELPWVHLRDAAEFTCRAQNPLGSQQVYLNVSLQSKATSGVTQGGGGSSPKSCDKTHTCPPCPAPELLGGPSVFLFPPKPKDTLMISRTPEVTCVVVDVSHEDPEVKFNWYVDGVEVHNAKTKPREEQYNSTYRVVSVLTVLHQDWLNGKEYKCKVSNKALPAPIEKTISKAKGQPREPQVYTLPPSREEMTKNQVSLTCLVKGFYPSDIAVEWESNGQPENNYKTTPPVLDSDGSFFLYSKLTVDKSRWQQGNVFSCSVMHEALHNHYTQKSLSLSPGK
Protocol: (§1) Blocking of the interaction between Siglec-7 and -9 and sialylated ligands by anti Siglec-7/9 antibodies was tested on ELISA assays. Siglec proteins were Siglec-7 human Fc and Siglec-9 Human Fc recombinant proteins, and ligands were biotinylated polymers with sialylated trisaccharides (Neu5Aca2-3Galb1-4GcNAcb-PAA-biotin Glycotech #01-077 referred to as “Sia1” and 6′-Sialyllactose-PAA-biotin Glycotech #01-039 (referred to as “Sia2”). Briefly, Protein A was coated on ELISA plates over night at 4° C. After 3 washes and saturation, Siglec-7 Fc and Siglec-9 Fc were added at 0.8 μg/well at RT for 1H30. After 3 washes, mAbs were added at 20 ug/ml and a series of dilution of 1:5. After 3 washes, biotinylated sialylated polymers were added for 3 hours at room temperature. After 3 washes, Streptavidin-Peroxidase (Beckman) was added at 1:1000. […] The absorbance was read at 450 nm.

[2] = molecular target: T1, Human Siglec-9 Ig-like C2-type domain 1; assay: flow cytometry, HEK293T cells expressing single Siglec-9 domains
[3] = molecular target: T3, Siglec-7 Fc protein (human); assay: ELISA, blocking: Siglec-7 Fc captured on protein A, mAb dilution series, then biotinylated polymer Sia2, streptavidin-peroxidase (top panel); partial inhibition
T3 construct: Produced in CHO cells; also called human Siglec-7 Fc
T3 sequence (chain, as listed by the source limits assumed): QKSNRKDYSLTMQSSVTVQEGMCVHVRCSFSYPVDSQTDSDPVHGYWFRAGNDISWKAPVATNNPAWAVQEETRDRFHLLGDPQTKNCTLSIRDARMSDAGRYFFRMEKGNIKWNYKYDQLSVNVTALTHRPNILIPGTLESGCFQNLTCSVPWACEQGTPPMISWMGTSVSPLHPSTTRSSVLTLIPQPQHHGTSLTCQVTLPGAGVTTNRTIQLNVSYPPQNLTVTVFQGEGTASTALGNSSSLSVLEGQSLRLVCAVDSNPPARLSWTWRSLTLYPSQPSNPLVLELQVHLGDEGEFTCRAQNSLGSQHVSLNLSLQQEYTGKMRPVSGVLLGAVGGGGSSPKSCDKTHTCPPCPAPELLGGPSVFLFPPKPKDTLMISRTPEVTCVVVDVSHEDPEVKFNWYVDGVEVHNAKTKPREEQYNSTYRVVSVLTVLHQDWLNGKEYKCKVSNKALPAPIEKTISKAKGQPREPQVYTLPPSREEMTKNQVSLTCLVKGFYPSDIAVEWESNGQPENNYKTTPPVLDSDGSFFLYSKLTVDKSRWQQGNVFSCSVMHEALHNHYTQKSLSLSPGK
Protocol: as §1

[4] = molecular target: T4, Cynomolgus Siglec (cynomolgus); assay: flow cytometry, CHO transfectants
T4 construct: Expressed on transfected CHO cells; also called Siglec-Cyno; cynoSiglec
T4 sequence (chain, as listed by the source limits assumed): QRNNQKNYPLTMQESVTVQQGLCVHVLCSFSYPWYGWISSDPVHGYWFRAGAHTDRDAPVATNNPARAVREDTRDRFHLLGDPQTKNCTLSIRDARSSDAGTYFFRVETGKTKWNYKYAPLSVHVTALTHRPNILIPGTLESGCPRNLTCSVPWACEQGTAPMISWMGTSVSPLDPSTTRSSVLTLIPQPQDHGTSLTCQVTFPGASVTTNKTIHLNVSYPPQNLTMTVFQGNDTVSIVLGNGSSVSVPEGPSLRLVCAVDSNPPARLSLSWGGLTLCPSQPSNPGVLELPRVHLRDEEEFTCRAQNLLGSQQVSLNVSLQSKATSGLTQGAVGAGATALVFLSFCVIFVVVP
Protocol: (§2) Binding of antibodies on human Siglec-7, human Siglec-9 and Cynomolgus Siglec-9 was tested by titration experiment by flow cytometry on CHO cells transfected with human Siglec-7 and human Siglec-9 and Cynomolgus Siglec-9. Cells were incubated 1h in Staining Buffer (SB) with primary antibodies at 20 ug/ml and a series of dilution of 1:5. They were washed three times with SB, then incubated 30 min with a goat F(ab′)² Anti-human IgG (Fc) PE (Beckman Coulter #1M05510), and washed twice with SB.

[5] = molecular target: T5, Human Siglec-7 (human, UniProt Q9Y286 19-467); assay: flow cytometry, CHO transfectants
T5 construct: Expressed on transfected CHO cells; also called huSiglec-7; CD328
T5 sequence (Q9Y286 19-467): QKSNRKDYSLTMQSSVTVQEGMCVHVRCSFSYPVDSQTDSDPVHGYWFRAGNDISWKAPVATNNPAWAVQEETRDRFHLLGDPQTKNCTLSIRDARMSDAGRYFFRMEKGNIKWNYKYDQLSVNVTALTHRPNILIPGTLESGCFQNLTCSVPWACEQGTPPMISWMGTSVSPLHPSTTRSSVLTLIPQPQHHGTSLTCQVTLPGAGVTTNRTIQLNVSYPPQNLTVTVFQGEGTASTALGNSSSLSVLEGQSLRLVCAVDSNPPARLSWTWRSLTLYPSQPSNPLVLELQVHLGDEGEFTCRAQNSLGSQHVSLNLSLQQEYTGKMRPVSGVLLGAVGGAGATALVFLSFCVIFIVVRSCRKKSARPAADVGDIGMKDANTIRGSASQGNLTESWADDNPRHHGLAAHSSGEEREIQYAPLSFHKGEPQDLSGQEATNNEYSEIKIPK
Protocol: as §2

[6] = molecular target: T6, Human Siglec-9 (human, UniProt Q9Y336 18-463); assay: flow cytometry, CHO transfectants
T6 construct: On transfected CHO cells; also on YTS and KHYG-1 transfectants, primary NK cells and moDC; also called huSiglec-9; CD329
T6 sequence (Q9Y336 18-463): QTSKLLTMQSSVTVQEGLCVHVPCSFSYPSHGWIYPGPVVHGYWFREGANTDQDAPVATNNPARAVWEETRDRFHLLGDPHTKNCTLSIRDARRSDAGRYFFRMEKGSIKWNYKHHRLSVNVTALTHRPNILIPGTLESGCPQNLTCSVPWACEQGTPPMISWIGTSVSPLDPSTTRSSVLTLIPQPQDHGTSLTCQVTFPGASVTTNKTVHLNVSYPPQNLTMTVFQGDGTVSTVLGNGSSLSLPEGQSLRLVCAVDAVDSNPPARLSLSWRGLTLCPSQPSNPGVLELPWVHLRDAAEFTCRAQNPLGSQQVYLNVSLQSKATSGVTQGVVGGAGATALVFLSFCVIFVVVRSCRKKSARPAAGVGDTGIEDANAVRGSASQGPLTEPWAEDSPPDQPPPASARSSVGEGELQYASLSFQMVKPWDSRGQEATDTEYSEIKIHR
Protocol: as §2

Row | Binder | binding result [1] | binding result [2] | IC50 (read off the curve) [3] | EC50 [4] | EC50 [5] | EC50 [6]
1 | mAb5 (antibody, human IgG1, V domains shown) VH: EIQLQQSGPELEKPGASVKISCKASGYSFSDYNMNWVKQSNGKSLEWIGNIDPYYGATSYNQRFKGKATLTVDKSSSTAYMQLKSLTSEDSAVYYCARGDSLFAYWGHGTLVTVSA VL: DIVMTQSQEFMSTSLGDRVSVTCKASQNVGTNVAWYQQKPGQSPKALLYSASSRYSGVPDRFTGSGSGTDFTLTISNVQSEDLAEYFCQQYITYPYTFGGGTKLEIK | binds | binds | ~1 µg/mL | 0.14 µg/mL | 0.22 µg/mL | 0.26 µg/mL
2 | mAb6 (antibody, human IgG1, V domains shown) VH: EIQLQQSGPELEKPGASVKISCKASGYSFSDYNMNWVKQSNGKSLEWIGNIDPYYGATSYNQRFKGKATLTVDKSSSTAYMQLKSLTSEDSAVYYCARGDSLFAYWGQGTLVTVSA VL: DIVMTQSQEFMSTSLGDRVSVTCKASQNVGTNVAWYQQKPGQSPKALLYSASSRYSGVPDRFTGSGSGTDFTLTINNMQSEDLAEYFCQQYITYPYTFGGGTKLEIK | binds | binds |  | 0.17 µg/mL | 0.33 µg/mL | 0.31 µg/mL
3 | mAb4 (antibody, human IgG1, V domains shown) VH: DVQLVESGGDLVKPGGSLKLSCAASGFAFSSYDMSWVRQSPEKRLEWIAHIGSGGGNIYYPDTVKGRFTISRDNAKNTLYLQMRSLKSEDTAMYYCARLIFTTGFYGMDYWGQGTSVTVSS VL: DIQMTQTTSSLSASLGDRVTISCRASQDISSYLNWYQQKPDGTIKLLIYYTSRLHSGVPSRFSGSGSGTDYSLTISNLDQDDIATYFCQQGNALPWTFGGGTKLEIK | binds | binds | ~2 µg/mL | 0.17 µg/mL | 0.17 µg/mL | 0.28 µg/mL
